system: Escherichia coli TOP10; assay: shrunken log2 fold change of peptide-encoding DNA abundance (4.5 h post-induction vs induction); higher = less antimicrobial activity (less host growth inhibition); settings: time post-induction: 4.5 h; library: site-saturation at positions 5, 18, 19, 20
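Note: peptides expressed intracellularly from a pBAD plasmid library in pooled LB shake-flask culture, induced with 0.3% L-arabinose, DNA abundance read by NGS, three biological replicates, DESeq2 with apeglm shrinkage.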

| Sequence | shrunken log2 fold change |
| --- | --- |
| RRIRHRPPRLPRPRPRPWRKPRP | -0.00968 |
| RRIRARPPRLPRPRPRPSICPRP | 0.154 |
| RRIRMRPPRLPRPRPRPYAKPRP | 0.00938 |
| RRIRDRPPRLPRPRPRPGGWPRP | 0.975 |
| RRIRSRPPRLPRPRPRPTARPRP | 0.44 |
| RRIRGRPPRLPRPRPRPSPAPRP | 0.901 |
| RRIRIRPPRLPRPRPRPFMQPRP | -0.91 |
| RRIRYRPPRLPRPRPRPTSNPRP | -0.276 |
| RRIRLRPPRLPRPRPRPNCNPRP | -0.535 |
| RRIRLRPPRLPRPRPRPSPFPRP | -0.183 |
| RRIRMRPPRLPRPRPRPAHFPRP | 0.152 |
| RRIRHRPPRLPRPRPRPTYYPRP | -0.0104 |
| RRIRIRPPRLPRPRPRPMGPPRP | 0.0284 |
| RRIRQRPPRLPRPRPRPCALPRP | 0.0342 |
| RRIRNRPPRLPRPRPRPMQCPRP | 0.0637 |
| RRIRARPPRLPRPRPRPAFHPRP | -0.115 |
| RRIRQRPPRLPRPRPRPSDDPRP | -0.0143 |
| RRIRFRPPRLPRPRPRPRFMPRP | -0.117 |
| RRIRCRPPRLPRPRPRPLERPRP | -0.199 |
| RRIRTRPPRLPRPRPRPNTGPRP | -0.388 |
| RRIRPRPPRLPRPRPRPPCVPRP | 0.128 |
| RRIRYRPPRLPRPRPRPGNPPRP | -0.377 |
| RRIRLRPPRLPRPRPRPFFRPRP | -0.0862 |
| RRIRTRPPRLPRPRPRPADNPRP | -0.294 |
| RRIRVRPPRLPRPRPRPYMWPRP | -0.48 |

| Sequence | shrunken log2 fold change |
| --- | --- |
| RRIRERPPRLPRPRPRPQGLPRP | -0.141 |
| RRIRVRPPRLPRPRPRPIKRPRP | 0.048 |
| RRIRYRPPRLPRPRPRPCHMPRP | -0.218 |
| RRIRFRPPRLPRPRPRPESYPRP | -0.0666 |
| RRIRQRPPRLPRPRPRPAYYPRP | -0.514 |
| RRIRKRPPRLPRPRPRPCYCPRP | -0.0227 |
| RRIRSRPPRLPRPRPRPRPTPRP | 0.391 |
| RRIRWRPPRLPRPRPRPALQPRP | 0.367 |
| RRIRNRPPRLPRPRPRPQEWPRP | -0.00211 |
| RRIRVRPPRLPRPRPRPVMDPRP | -0.324 |
| RRIRMRPPRLPRPRPRPFPQPRP | 0.103 |
| RRIRYRPPRLPRPRPRPLMKPRP | -0.179 |
| RRIRPRPPRLPRPRPRPHVRPRP | 0.036 |
| RRIRARPPRLPRPRPRPDDMPRP | 0.371 |
| RRIRNRPPRLPRPRPRPLEHPRP | -0.0225 |
| RRIRDRPPRLPRPRPRPMCCPRP | 0.0249 |
| RRIRNRPPRLPRPRPRPLFCPRP | -0.495 |
| RRIRSRPPRLPRPRPRPCGKPRP | 0.027 |
| RRIRIRPPRLPRPRPRPTGCPRP | -0.0215 |
| RRIRNRPPRLPRPRPRPGIGPRP | 0.239 |
| RRIRLRPPRLPRPRPRPPQVPRP | 0.162 |
| RRIRIRPPRLPRPRPRPLDYPRP | -0.504 |
| RRIRDRPPRLPRPRPRPTWRPRP | 0.756 |
| RRIRKRPPRLPRPRPRPNWIPRP | -0.2 |
| RRIRHRPPRLPRPRPRPGYYPRP | -0.318 |

| Sequence | shrunken log2 fold change |
| --- | --- |
| RRIRGRPPRLPRPRPRPADWPRP | 1.03 |
| RRIRRRPPRLPRPRPRPVINPRP | -0.0966 |
| RRIRTRPPRLPRPRPRPPNHPRP | -0.000973 |
| RRIRWRPPRLPRPRPRPPTHPRP | 0.469 |
| RRIRQRPPRLPRPRPRPYGCPRP | -0.00141 |
| RRIRPRPPRLPRPRPRPMQNPRP | 0.201 |
| RRIRSRPPRLPRPRPRPNKVPRP | -0.283 |
| RRIRIRPPRLPRPRPRPNWQPRP | -0.0358 |
| RRIRYRPPRLPRPRPRPWDTPRP | -0.639 |
| RRIRRRPPRLPRPRPRPEFPPRP | 0.154 |
| RRIRFRPPRLPRPRPRPHLSPRP | -0.219 |
| RRIRERPPRLPRPRPRPLNKPRP | -0.47 |
| RRIRSRPPRLPRPRPRPVWSPRP | 0.0126 |
| RRIRARPPRLPRPRPRPWRRPRP | 0.267 |
| RRIRIRPPRLPRPRPRPSPDPRP | 0.127 |
| RRIRARPPRLPRPRPRPCFSPRP | -0.137 |
| RRIRLRPPRLPRPRPRPEDQPRP | 0.22 |
| RRIRWRPPRLPRPRPRPPWSPRP | 0.378 |
| RRIRVRPPRLPRPRPRPHDPPRP | 0.0847 |
| RRIRIRPPRLPRPRPRPITMPRP | -1.08 |
| RRIRMRPPRLPRPRPRPEHVPRP | 0.0396 |
| RRIRFRPPRLPRPRPRPNLRPRP | -0.0383 |
| RRIRKRPPRLPRPRPRPEPHPRP | 0.829 |
| RRIRGRPPRLPRPRPRPDCKPRP | 0.577 |
| RRIRFRPPRLPRPRPRPFNVPRP | -0.0431 |

| Sequence | shrunken log2 fold change |
| --- | --- |
| RRIRIRPPRLPRPRPRPYRMPRP | -1.26 |
| RRIRARPPRLPRPRPRPQHLPRP | -0.0998 |
| RRIRRRPPRLPRPRPRPISMPRP | 0.0655 |
| RRIRVRPPRLPRPRPRPDWQPRP | 0.0968 |
| RRIRGRPPRLPRPRPRPHASPRP | 0.585 |
| RRIRTRPPRLPRPRPRPKWIPRP | -0.232 |
| RRIRVRPPRLPRPRPRPLCKPRP | -0.394 |
| RRIRVRPPRLPRPRPRPMKVPRP | -0.194 |
| RRIRFRPPRLPRPRPRPMAMPRP | 0.102 |
| RRIRRRPPRLPRPRPRPTPKPRP | 1.24 |
| RRIRWRPPRLPRPRPRPTCEPRP | 0.752 |
| RRIRGRPPRLPRPRPRPASKPRP | 0.453 |
| RRIRHRPPRLPRPRPRPPGKPRP | -0.155 |
| RRIRERPPRLPRPRPRPTHQPRP | -0.135 |
| RRIRYRPPRLPRPRPRPRHGPRP | -0.0607 |
| RRIRMRPPRLPRPRPRPVYVPRP | -0.161 |
| RRIRVRPPRLPRPRPRPNEQPRP | -0.232 |
| RRIRLRPPRLPRPRPRPIENPRP | 0.0407 |
| RRIRIRPPRLPRPRPRPNYTPRP | -0.516 |
| RRIRARPPRLPRPRPRPTVKPRP | 0.143 |
| RRIRMRPPRLPRPRPRPDGDPRP | 0.0211 |
| RRIRKRPPRLPRPRPRPFYRPRP | 0.0824 |
| RRIRQRPPRLPRPRPRPHYKPRP | -1.18 |
| RRIRMRPPRLPRPRPRPARFPRP | 0.251 |
| RRIRHRPPRLPRPRPRPTNIPRP | -0.135 |

| Sequence | shrunken log2 fold change |
| --- | --- |
| RRIRQRPPRLPRPRPRPQKKPRP | -0.214 |
| RRIRHRPPRLPRPRPRPDILPRP | -0.0904 |
| RRIRRRPPRLPRPRPRPRVYPRP | 0.335 |
| RRIRQRPPRLPRPRPRPLDAPRP | 0.109 |
| RRIRFRPPRLPRPRPRPNYKPRP | -0.735 |
| RRIRTRPPRLPRPRPRPIPAPRP | 0.0613 |
| RRIRMRPPRLPRPRPRPKHAPRP | 3.03 |
| RRIRHRPPRLPRPRPRPCMYPRP | -0.0819 |
| RRIRLRPPRLPRPRPRPESQPRP | -0.000253 |
| RRIRERPPRLPRPRPRPGLAPRP | 0.178 |
| RRIRCRPPRLPRPRPRPREVPRP | 0.415 |
| RRIRKRPPRLPRPRPRPCEYPRP | 0.0394 |
| RRIRDRPPRLPRPRPRPEMFPRP | -0.0156 |
| RRIRVRPPRLPRPRPRPVLTPRP | 0.146 |
| RRIRQRPPRLPRPRPRPQVDPRP | -0.0137 |
| RRIRVRPPRLPRPRPRPVFFPRP | -0.0099 |
| RRIRTRPPRLPRPRPRPFCDPRP | -0.268 |
| RRIRQRPPRLPRPRPRPSPHPRP | -0.511 |
| RRIRCRPPRLPRPRPRPAEDPRP | 0.213 |
| RRIRLRPPRLPRPRPRPVTFPRP | -0.0737 |
| RRIRPRPPRLPRPRPRPMHRPRP | 0.0978 |
| RRIRRRPPRLPRPRPRPQHTPRP | 0.191 |
| RRIRTRPPRLPRPRPRPQGQPRP | -0.186 |
| RRIRIRPPRLPRPRPRPSAQPRP | -0.0807 |
| RRIRVRPPRLPRPRPRPCKAPRP | 0.033 |

| Sequence | shrunken log2 fold change |
| --- | --- |
| RRIRIRPPRLPRPRPRPQLVPRP | -0.163 |
| RRIRERPPRLPRPRPRPHIYPRP | -0.226 |
| RRIRTRPPRLPRPRPRPFDFPRP | -0.271 |
| RRIRPRPPRLPRPRPRPNDGPRP | -0.482 |
| RRIRNRPPRLPRPRPRPTTTPRP | 0.082 |
| RRIRIRPPRLPRPRPRPCWNPRP | -0.301 |
| RRIRHRPPRLPRPRPRPYHGPRP | -0.0161 |
| RRIRPRPPRLPRPRPRPCTMPRP | -0.191 |
| RRIRWRPPRLPRPRPRPWDQPRP | 0.00408 |
| RRIRARPPRLPRPRPRPQEPPRP | 0.744 |
| RRIRTRPPRLPRPRPRPWTDPRP | -0.17 |
| RRIRQRPPRLPRPRPRPQRIPRP | -0.226 |
| RRIRSRPPRLPRPRPRPRCYPRP | -0.107 |
| RRIRTRPPRLPRPRPRPFSYPRP | -0.0874 |
| RRIRNRPPRLPRPRPRPLYTPRP | -0.269 |
| RRIRWRPPRLPRPRPRPTYSPRP | -0.163 |
| RRIRHRPPRLPRPRPRPMQQPRP | -0.174 |
| RRIRKRPPRLPRPRPRPTVWPRP | 0.548 |
| RRIRDRPPRLPRPRPRPRVFPRP | 0.485 |
| RRIRMRPPRLPRPRPRPTMPPRP | 0.174 |
| RRIRARPPRLPRPRPRPIGFPRP | -0.0732 |
| RRIRARPPRLPRPRPRPFEHPRP | 0.172 |
| RRIRPRPPRLPRPRPRPWYYPRP | -0.102 |
| RRIRHRPPRLPRPRPRPFMNPRP | -0.0862 |
| RRIRGRPPRLPRPRPRPCCGPRP | 0.781 |

Reference: the supplement of paper PMC9112550, “Optimization of the antimicrobial peptide Bac7 by deep mutational scanning” (BMC Biology, 2022)
